Several values for one entry are separate records, joined by “and”; a condition that tells them apart may be missing. Equal entries are not always repeated.
Target: GINS complex (Gins51 and Gins23), wild type (Thermococcus kodakarensis)
Experiment: native gel or EMSA

“family D DNA polymerase (PolD), DP1 and DP2 (complex)” was tested. Which stoichiometry N (PolD per GINS) did it give?
The stoichiometry N (PolD per GINS) was 2 and 1.
